A word on the Kd: it is the constant that tells how readily two partners part at equilibrium.

We go through eleven molecules from patent US12427163B2, “Anti-VTCN1 antibodies and antibody drug conjugates” (Bluefin BioMedicine, Inc., priority 2017, dated 2025).

Holding throughout (type): binding
In one assay the target is T1, human VTCN1 protein (Homo sapiens, UniProt Q7Z7D3).
T1 construct: His
T1 sequence (Q7Z7D3 25-282): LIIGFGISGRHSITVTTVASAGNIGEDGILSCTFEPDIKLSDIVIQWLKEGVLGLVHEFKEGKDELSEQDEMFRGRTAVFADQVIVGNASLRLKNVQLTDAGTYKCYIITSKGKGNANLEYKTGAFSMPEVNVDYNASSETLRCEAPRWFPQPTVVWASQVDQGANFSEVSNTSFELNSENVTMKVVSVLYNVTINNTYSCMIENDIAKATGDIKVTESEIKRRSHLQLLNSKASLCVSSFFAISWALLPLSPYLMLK
As to the kind of experiment: Affinity to recombinant VTCN1-his by OCTET Red (Protein A biosensors). As to conditions: for K(off) / k(on): Table 9; for Kdis (human) / Kon (human): Table 5; for Human K(off) / Human k(on): Table 12. As to the method: (§1) The affinity of antibodies to recombinant VTCN1 was determined on an OCTET™ Red (Pall, ForteBio) instrument. After loading reagents into a 96-well plate, the OCTET™ Red with Protein A-conjugated biosensors was programmed as follows: 30 seconds for baseline #1; 45 seconds to immobilize the antibody; 30 seconds for baseline #2; 300 seconds for association of antibody to recombinant VTCN1-his; and 300 seconds for dissociation of recombinant VTCN1-his from the antibody. Table 5 lists the affinity measured for selected antibodies.

For assay [1], the system named is cynomolgus monkey VTCN1 protein. The experiment in a line: Affinity by OCTET, cynomolgus monkey VTCN1. As to conditions: Table 12. As to the method:
The affinity of antibodies to recombinant VTCN1 was determined on an OCTET™ Red (Pall, ForteBio) instrument. After loading reagents into a 96-well plate, the OCTET™ Red with Protein A-conjugated biosensors was programmed as follows: 30 seconds for baseline #1; 45 seconds to immobilize the antibody; 30 seconds for baseline #2; 300 seconds for association of antibody to recombinant VTCN1-his; and 300 seconds for dissociation of recombinant VTCN1-his from the antibody.

Another assay deals with T2, mouse VTCN1 protein (Mus musculus, UniProt Q7TSP5).
T2 construct: His
T2 sequence (Q7TSP5 25-257): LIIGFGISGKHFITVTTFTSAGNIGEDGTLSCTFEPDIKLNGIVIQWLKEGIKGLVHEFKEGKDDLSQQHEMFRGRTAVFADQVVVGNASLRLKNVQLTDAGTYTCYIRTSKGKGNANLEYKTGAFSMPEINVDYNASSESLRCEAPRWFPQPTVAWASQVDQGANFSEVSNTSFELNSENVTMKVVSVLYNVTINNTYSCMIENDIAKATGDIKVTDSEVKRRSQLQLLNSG
As to the kind of experiment: Affinity by OCTET, mouse VTCN1. The conditions noted are these: Table 12. As to the method: as §1

B1: hu6D9_57A3: humanized 6D9 antibody; VH SEQ ID NO: 220, VL SEQ ID NO: 224 (antibody, V domains shown)
VH: QVQLVESGGGVVQPGRSLRLSCAVSGFSLTSYGVQWVRQAPGKGLEWLGVIWSSGSTDYNAAFLSRLTISKDNSKNTVYFQMNSLRAEDTAVYYCARDVTTIVEGFAHWGQGTLVTVSS
VL: DIQMTQSPSSLSASVGDRVTITCKASEKVGTYVSWYQQKPGKAPKLLIYGASNRYTGVPSRFSGSGSGTDFTLTISSLQPEDFATYYCGQTYSYPFTFGQGTKLEIK
Turning to B1, in the assay with human VTCN1 protein, the “K(off)” value amounted to 2.27E−03 and the “k(on)” value stood at 8.21E+04.

B2: hu6D9_66B1: humanized 6D9 antibody; VH SEQ ID NO: 236, VL SEQ ID NO: 224 (antibody, V domains shown)
VH: QVQLVESGGGVVQPGRSLRLSCAVSGFTFSSYGVQWVRQAPGKGLEWLGVIWSSGSTDYNAAFLSRLTISKDNSKNTVYFQMNSLRAEDTAVYYCARDVTTIVEGFAHWGQGTLVTVSS
VL: DIQMTQSPSSLSASVGDRVTITCKASEKVGTYVSWYQQKPGKAPKLLIYGASNRYTGVPSRFSGSGSGTDFTLTISSLQPEDFATYYCGQTYSYPFTFGQGTKLEIK
B2: in the assay with human VTCN1 protein, the “K(off)” value turned out to be 3.25E−03 and the “k(on)” value is 1.20E+05.

B3: hu6D9_57A4: humanized 6D9 antibody; VH SEQ ID NO: 228, VL SEQ ID NO: 224 (antibody, V domains shown)
VH: QVQLVESGPGVVQPGRSLRLSCAVSGFSLTSYGVQWVRQAPGKGLEWLAVIWSSGSTDYNAAFLSRLTISKDNSKSTVYFQMNSLRAEDTAVYYCARDVTTIVEGFAHWGQGTLVTVSS
VL: DIQMTQSPSSLSASVGDRVTITCKASEKVGTYVSWYQQKPGKAPKLLIYGASNRYTGVPSRFSGSGSGTDFTLTISSLQPEDFATYYCGQTYSYPFTFGQGTKLEIK
For the molecule B3, in the assay with human VTCN1 protein, the “K(off)” value was 2.26E−03 and the “k(on)” value is recorded as 6.21E+04.

B4: hu6D9_57A5: humanized 6D9 antibody; VH SEQ ID NO: 232, VL SEQ ID NO: 224 (antibody, V domains shown)
VH: QVQLVESGGGVVQPGRSLRLSCAVSGFSLTSYGVQWVRQAPGKGLEWLAVIWSSGSTDYNAAFLSRLTISKDNSKNTVYFQMNSLRAEDTAVYYCARDVTTIVEGFAHWGQGTLVTVSS
VL: DIQMTQSPSSLSASVGDRVTITCKASEKVGTYVSWYQQKPGKAPKLLIYGASNRYTGVPSRFSGSGSGTDFTLTISSLQPEDFATYYCGQTYSYPFTFGQGTKLEIK
With B4, in the assay with human VTCN1 protein, the “K(off)” value was found to be 2.89E−03 and the “k(on)” value stood at 8.14E+04.

B5: 6E2: mouse anti-human VTCN1 antibody; VH SEQ ID NO: 33, VL SEQ ID NO: 37 (antibody, V domains shown)
VH: QIQLQESGPGLVQPSQSLSITCTVSGFSLTSYGVQWVRQSPGKGLEWLGVIWSGGSTDYNAAFISRLSISKDNSKSQVFFKMNSLQADDTAIYYCARDISTIVEGFAHWGQGTLVTVSS
VL: NIVMTQSPKSMSMSVGERVTLSCKASEKVGTYVSWYQQKPEQSPKLLIYGASNRYTGVPDRFTGSGSATDFTLTISSVQAEDLADYHCGQSYRYPFTFGSGTKLEIK
For the molecule B5, in the assay with human VTCN1 protein, the “Kdis (human)” value was 7.46 × 10^−3 and the “Kon (human)” value was 9.41 × 10^5.

B6: 3G10: mouse anti-human VTCN1 antibody; VH SEQ ID NO: 17, VL SEQ ID NO: 21 (antibody, V domains shown)
VH: QIQLKESGPGLVQPSQSLSITCTVSGFSLTSYGVHWVRQSPGKGLEWLGVIWSGGYTDYNSAFISRLSISKDNSKSQVFFKMNSLQADDTAIYYCARDITTIVEGFAYWGQGTLVTVSA
VL: IIVMTQSPKSMSMSVGERITLNCKASENVGTYVSWYQQKPEQSPKLLIYGASNRYTGVPDHFTGSGSATDFTLTISSVQAEDLADYHCGQTYSYPFTFGSGTKLEIK
Take B6: in the assay with human VTCN1 protein, the “Kdis (human)” value is reported as 1.26 × 10^−2 and the “Kon (human)” value is given as 1.07 × 10^6.

B7: 5A12: mouse anti-human VTCN1 antibody; VH SEQ ID NO: 105, VL SEQ ID NO: 109 (antibody, V domains shown)
VH: QVQLQQSGPGLVQPSQSLSITCTVSGFSLTSYGVQWVRQSPGKGLEWLGVIWSSGSTDYNAAFISRLSINKDNSKSQVFFKMNSLQPDDTAIYYCARDITTIVEGFAYWGQGTLVTVSA
VL: IIVMTQSPKSMSMSVGERVTLSCKASENVGTYVSWYQQKPEQSPKLLIYGASNRYTGVPDRFTGSGSATDFTLTISSVQAEDLADYHCGQSYSYPFTFGSGTKLEIK
Turning to B7, in the assay with human VTCN1 protein, the “Kdis (human)” value is 1.64 × 10^−3 and the “Kon (human)” value is on record as 3.93 × 10^5.

B8: 7F10: mouse anti-human VTCN1 antibody; VH SEQ ID NO: 137, VL SEQ ID NO: 141 (antibody, V domains shown)
VH: QVQLQQSGPGLVQPSQSLSITCTVSGFSLTSYGIHWVRQSPGKGLEWLGVIWSSGSTDYNAAFISRLSISKDNSKSQVFFKMNSLQSDDTAIHYCARDITTIAEGFAYWGQGTLVTVSA
VL: NIVMTQSPKSMSMSVGERVTLSCKASENVGTYVSWYQQKPEQSPKLLIYGASNRYTGVPDRFTGSGSATDFTLTISSVQAEDLADYHCGQSYSYPFTFGSGTKLEIK
As to B8, in the assay with human VTCN1 protein, the “Kdis (human)” value was 5.94 × 10^−3 and the “Kon (human)” value is 1.15 × 10^6.

B9: 7G7_44C6: fully human VTCN1 antibody; VH SEQ ID NO: 256, VL SEQ ID NO: 260 (antibody, V domains shown)
VH: QVQLQESGPGLVKPSETLSLTCTVSGGSISHYYWSWIRQPPGKGLEWIGYIYYSGPTNYNPSLKSRVTISVDTSKNQFSLKLSSVTAADTAVYYCARTYYYGSGSFPDAFDIWGQGTMVTVSS
VL: KIVLTQSPATLSLSPGERATLSCRASQSVSSYLAWYQQTPGQAPRLLIYDASNRATGIPARFSVSGSGTDFTLTISSLEPEDFAVYYCQQRSSWPLTFGGGTKLEIK
As to B9, in the assay with human VTCN1 protein, the “Human K(off)” value stood at 1.62E−01 and the “Human k(on)” value was found to be 8.42E+05. Moreover, in assay [1], the “cynomolgus monkey k(off)” value was found to be 1.50E−01 and the “cynomolgus monkey k(on)” value is 6.61E+05. Besides, the dissociation constant Kd in the assay with mouse VTCN1 protein was greater than 500 nM.

B10: 10D1: mouse anti-human VTCN1 antibody; VH SEQ ID NO: 57, VL SEQ ID NO: 61 (antibody, V domains shown)
VH: QVQLQESGPELVKPGASVKLSCKASGYIFTDYTIHWLKQSPGQGLEWIGWIYPGSGHTHYNDKFKGKATMTADKSSTTAYMQLSSLTSEDSAVFFCARGGESITTVFPLAYWGQGTLVTVSA
VL: DIVMSQSPSSLAVSVGEKVTMSCKSSQSLLYSSDQKNYLAWYQQKPGQSPKLLIYWASTWESGVPDRFIGSGSGTDFTLTVSSVKAEDLAVYYCHQYYSYPPTFGAGTKLEIK
Regarding B10, in the assay with human VTCN1 protein, the “Kdis (human)” value is recorded as 4.04 × 10^−3 and the “Kon (human)” value is 9.83 × 10^5.

B11: 13H9_44D2: fully human VTCN1 antibody; VH SEQ ID NO: 272, VL SEQ ID NO: 276 (antibody, V domains shown)
VH: QVQLQESGPGLVKPSETLSLTCTVSGGSISSYYWSWIRQPPGKGLEWIGYIYYSGSTNNNPSLKSRVTISVDTSKNQFSLKLISVTAADTAVYYCARVYNNYDWGFDYWGQGTLVTVSS
VL: EIVMTQSPATLSVSPGERATLSCRASQSVSSNLAWYQQKPGQAPRLLIYGASTRATGIPARFSGSGSGTEFTLTIRSLQSEDFAVYYCQQYHNWPLTFGGGTKLEIK
Turning to B11, in the assay with human VTCN1 protein, the “Human K(off)” value is listed as 1.71E−01 and the “Human k(on)” value amounted to 1.33E+06. In assay [1], the “cynomolgus monkey k(off)” value is 1.67E−01 and the “cynomolgus monkey k(on)” value was 1.16E+06. In the assay with mouse VTCN1 protein, the “mouse k(off)” value is reported as 5.79E−01 and the “mouse k(on)” value is given as 2.16E+06.
